Source: patent US20220347267A1, “METHODS TO IMPROVE PATIENT RESPONSE TO IMMUNE CHECKPOINT INHIBITORS AND FUNCTIONAL TESTS TO PREDICT RESPONSE” (Biomarker Strategies, LLC, priority 2019, published 2022)

Legend:
Assay in all cases: PD-L1 western blot after modulators (EM and MTAs)
Format in all cases: cell-based, human
[1] = test system: H460 cells; settings: NSCLC H460, 30 minutes, 3 hours, 24 hours
[2] = test system: BT549 cells; settings: Breast BT549, 30 minutes, 3 hours, 24 hours
[3] = test system: H1650 cells; settings: NSCLC H1650, 30 minutes, 3 hours, 24 hours

Measured: PD-L1 Response

B1: IFNγ: human IFNγ, modulator (10 ng/ml; Sigma Aldrich) (protein, UniProt P01579 24-161, looked up)
Interferon gamma: QDPYVKEAENLKKYFNAGHSDVADNGTLFLGILKNWKEESDRKIMQSQIVSFYFKLFKNFKDDQSIQKSVETIKEDMNVKFFNSNKKKRDDFEKLTNYSVTDLNVQRKAIHELIQVMAELSPAAKTGKRKRSQMLFRG
Up: [1] | [2] | [3]
